Test results: paper PMC8651051 (Science Translational Medicine, 2021)

Tests used:
[1] = target: SARS-CoV-2 RBD, truncated version (residues 333 to 529) used for crystallization (SARS-CoV-2, UniProt P0DTC2); experiment: crystal structure; details: both partners purified
[2] = target: SARS-CoV-2 RBD, truncated version (residues 333 to 529) (SARS-CoV-2, UniProt P0DTC2); experiment: crystal structure; details: both partners purified

B1: COVA1-16 Fab (Fab, V domains shown)
VH: QVQLVQSGAEVKKPGASVKVSCKASGYTFTSYYMHWVRQAPGQGLEWMGIINSSGGSTSYAQKFQGRVTMTRDTSTSTVYMELSSLRSEDTAVYYCARPPRNYYDRSGYYQRAEYFQHWGQGTLVTVSS
VL: DIQLTQSPSSLSASVGDRVTITCQASQDISNYLNWYQQRPGKAPKLLIYDASNLETGVPSRFSGSGSGTDFTFTISSLQPEDIATYYCQQYDNPPLTFGGGTKLEIK
B1: binds [1].

B2: COVA1-16 Fab (Fab, V domains shown)
VH: B1 VH
VL: B1 VL
B2: binds [2].
